B1: ZW107 (antibody, V domains shown)
VH: QVQLQQSGAELVRPGTSVKISCKASGYAFTNYWLGWVKQRPGHGLEWIGDIYPGNGNNYYSEKFKDKATLTADKSSSTVYIRLSSLTSEDSAVYFCARHGSFRSAMDYWGQGTSVTVSS
VL: DIQMTQSPASPSASVGETVTITCRASENIYSYLAWYQQKQGKSPQLLVYNAKTLADGVPSRFSGSGSGTQFSLKINSLQPEDFGSYYCQHHYGTPPTFGGGTKLEIK
B2: ZW103 (antibody, V domains shown)
VH: QVQLQQSGAELVRPGVSVKISCKGSGYTFTDYAMHWVKQSHVKSLEWIGGISTYNGDASYNQKFKGKATMTVDKSSRTAYMELVRLTSEDSAIYYCAPSNYGYAMDYWGQGTSVTVSS
VL: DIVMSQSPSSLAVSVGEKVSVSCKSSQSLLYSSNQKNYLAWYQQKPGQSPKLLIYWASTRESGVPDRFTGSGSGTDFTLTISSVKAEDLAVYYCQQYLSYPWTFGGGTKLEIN
B3: ZW104 (antibody, V domains shown)
VH: QVQLQQSGAELARPGASVKMSCKASGYIFTTYAMHWVKQRPGQGLEWIGYINPTTVYTIYNQKFKDKATLTADKSSSTAYMQLSSLTSEDSAVYYCARLGGHWYFDVWGAGTTVTVSS
VL: not shown
B4: ZW106 (antibody, V domains shown)
VH: QVQLQQPESELVRPGGSVKLSCKASGYTFTSYWMDWVKQRHGQGLEWIGNIYPDSGGTNYAEKFKSKATLTVDTSSSTAYMHLSSLTSEDSAVYYCTREEALGGYYELTYWGQGTLVTVSA
VL: DIVLTQSPASLPVSLGQRATISCRASQSVSTSSYSYMHWYQQKPGQPPKLLIKYASNLESGVPARFSGSGSGTDFTLNIHPVEEEDTATYYCQHSWEIPYTFGGGTKLEIE

What follows are binders tested against human 4-1BB ECD (human, UniProt Q07011).
Sequence of human 4-1BB ECD (Q07011 24-186): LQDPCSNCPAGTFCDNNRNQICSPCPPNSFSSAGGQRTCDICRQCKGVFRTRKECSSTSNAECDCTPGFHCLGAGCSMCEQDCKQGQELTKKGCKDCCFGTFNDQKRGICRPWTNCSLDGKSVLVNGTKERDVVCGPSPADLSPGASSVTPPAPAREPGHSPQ

Kd [nM] | Binder
< 0.001 | B1
0.265 | B2
0.0474 | B3
1.2 | B4

From patent US10899842 (dated 2021)
